The results in this text go back to patent US20200148733A1 (Pieris, published 2020).

Experiment [1] addresses T1, mouse IL-23 (mouse, UniProt Q9EQ14 22-196; P43432 23-335).
T1 construct: also called mIL-23
T1 sequence (looked up) 1: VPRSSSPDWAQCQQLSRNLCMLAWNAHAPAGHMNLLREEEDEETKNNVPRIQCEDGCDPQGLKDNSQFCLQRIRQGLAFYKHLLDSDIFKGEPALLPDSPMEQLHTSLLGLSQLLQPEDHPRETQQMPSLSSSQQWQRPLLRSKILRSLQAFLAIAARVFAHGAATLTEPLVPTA
T1 sequence (looked up) 2: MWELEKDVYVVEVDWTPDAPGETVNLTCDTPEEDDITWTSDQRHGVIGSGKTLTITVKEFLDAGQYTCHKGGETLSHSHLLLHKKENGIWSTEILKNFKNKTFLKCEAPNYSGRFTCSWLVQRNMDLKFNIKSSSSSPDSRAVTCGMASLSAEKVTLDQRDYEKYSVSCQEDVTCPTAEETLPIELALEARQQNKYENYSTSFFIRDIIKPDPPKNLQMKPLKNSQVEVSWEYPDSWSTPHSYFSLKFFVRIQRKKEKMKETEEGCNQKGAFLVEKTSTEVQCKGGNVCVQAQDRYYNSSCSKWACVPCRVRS
The experiment is described as follows: solution competition ELISA (FIG. 5B). Here is the method: (§1) In the following detailed experimental protocol, incubation and washing steps were performed as described above in the competition ELISA protocol. A 384-well plate suitable for fluorescence measurements (Greiner FLUOTRAC™ 600, black flat bottom, high-binding) was coated with 20 μl of Neutravidin at a concentration of 5 μg/ml in PBS over night at 4° C. After washing, the Neutravidin-coated wells were blocked with 100 μl PBS-T/BSA for 1h at room temperature.
In general terms: An ELISA detects its analyte on a solid surface through an enzyme-linked reagent.

The target in experiment [2] is T2, human IL-23 (human, UniProt Q9NPF7 20-189; P29460 23-328).
T2 construct: Heterodimer of p19 and p40; in the proliferation assays CAT # HZ-1254, HumanZyme; also called hIL-23; hIL23
T2 sequence (looked up) 1: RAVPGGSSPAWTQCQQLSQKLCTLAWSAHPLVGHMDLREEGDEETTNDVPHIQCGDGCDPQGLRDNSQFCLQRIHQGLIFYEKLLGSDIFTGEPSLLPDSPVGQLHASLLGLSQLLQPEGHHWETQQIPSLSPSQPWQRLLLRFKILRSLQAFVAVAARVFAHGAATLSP
T2 sequence (looked up) 2: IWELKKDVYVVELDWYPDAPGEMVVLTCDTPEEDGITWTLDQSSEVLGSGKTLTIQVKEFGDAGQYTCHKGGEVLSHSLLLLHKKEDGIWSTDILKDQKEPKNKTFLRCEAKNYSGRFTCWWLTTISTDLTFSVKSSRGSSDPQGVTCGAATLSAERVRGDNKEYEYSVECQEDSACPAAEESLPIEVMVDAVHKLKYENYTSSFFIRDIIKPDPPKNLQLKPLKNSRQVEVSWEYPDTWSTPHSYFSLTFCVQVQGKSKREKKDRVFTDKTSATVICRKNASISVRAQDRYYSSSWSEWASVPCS
The experiment is described as follows: competition ELISA (ECL): 0.01 nM biotinylated hIL-23 pre-incubated with varied mutein, free hIL-23 captured on coated soluble hIL-23R (competitor). Here is the method:
All incubation steps were performed with shaking 300 rpm, and the plate was washed after each incubation step with 80 μl PBS/0.05% Tween 20 for five times using a Biotek ELx405 select CW washer. […] After washing, the receptor-coated wells were blocked with 60 μl PBS-T/BSA for 1 h at room temperature.
After washing, 60 μl MSD Read Buffer T (2×) was added to each well and the plate was read within 15 min.

For experiment [3], the target named is T2, human IL-23. The experiment is described as follows: SPR (Biacore T200), hIL-23 immobilized on CM5 chip, mutein injected, fit 1:1 Binding. Here is the method: (§2) Residual activated groups were quenched with ethanolamine. The reference channels were treated with EDC/NHS following ethanolamine (blank immobilization).
(§3) The binding assay was carried out with a contact time of 300 s, dissociation time of 1200 s and applying a flow rate of 30 μL/min. All measurements were performed at 25° C. […] Prior to the protein measurements three startup cycles were performed for conditioning purposes. Data were evaluated with Biacore T200 Evaluation software (V 1.0). Double referencing was used. The 1:1 Binding model was used to fit the raw data.

Experiment [4] deals with T2, human IL-23. The experiment is described as follows: Surface Plasmon Resonance, legend of FIG. 6B (rounded value of the measurement of the example). The protocol: as §2, §3
Experiment [5] has as its target T3, human IL-12p40 (human, UniProt P29460 23-328).
T3 construct: also called hIL-12p40
T3 sequence (looked up): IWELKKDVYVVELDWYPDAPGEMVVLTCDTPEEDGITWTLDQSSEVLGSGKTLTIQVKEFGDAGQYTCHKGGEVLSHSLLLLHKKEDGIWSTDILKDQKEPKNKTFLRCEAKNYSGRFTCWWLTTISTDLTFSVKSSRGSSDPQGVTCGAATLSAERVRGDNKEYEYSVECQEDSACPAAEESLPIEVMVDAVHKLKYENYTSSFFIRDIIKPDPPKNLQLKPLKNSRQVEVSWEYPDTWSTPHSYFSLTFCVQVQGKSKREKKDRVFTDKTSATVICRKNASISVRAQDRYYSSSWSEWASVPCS
In words: solution competition ELISA, 10 nM SEQ ID NO: 9, plate with biotinylated hIL-23. The protocol:
as §1

In experiment [6] the target is T2, human IL-23. In words: SPR (Biacore T200), IL-23 amine-coupled to CM5 chip, mutein in solution, 25 C, 1:1 binding model. Here is the method: as §2, §3
Experiment [7] addresses T1, mouse IL-23. In words: solution competition ELISA (FIG. 5A). Here is the method: as §1
The target of experiment [8] is T2, human IL-23. In words: cell-based or functional assay.
For experiment [9], the target named is T3, human IL-12p40. The experiment is described as follows: solution competition ELISA, 1 nM SEQ ID NO: 10, plate with biotinylated hIL-23. The protocol: as §1
In experiment [10] the target is T2, human IL-23. In words: Surface Plasmon Resonance, legend of FIG. 6C (rounded value of the measurement of the example). The protocol: as §2, §3

B1: lipocalin mutein SEQ ID NO: 9 (designed binder)
chain: QDSTSDLIPAPPLSKVPLQQNFQDNQFHGKWYVVGMAGNLMLREDKDPTKMSATIYELKEDKSYNVTWVDFRFKKCKYQIGTFVPGSQPGEFTLGGIKSMPGMTSFLVRVVSTNYNQHAMVFFKYVYQNREYFEITLYGRTKELTSELKENFIRFSKSLGLPENHIVFPVPIDQCIDG
notes: Human NGAL (lipocalin 2) mutein specific for IL-23p19
The term IC50 denotes the concentration at which inhibition is half-maximal. Higher therefore signals weaker potency in that assay. In general, koff refers to the rate constant with which the complex falls apart. The kon is the rate constant with which the complex forms. Low readings indicate slow association, high ones fast association. By Kd is commonly meant the equilibrium constant for the complex coming apart. Low readings indicate higher affinity, high ones lower affinity. On to B1, for which the binding result in [1] is “binds”; in experiment [5], “no binding (tested: ligand up to 1000 nM)”. Also, the IC50 in [2] was found to be 119 nM. Further, the koff in experiment [3] and in experiment [6] was 0.00063 s⁻¹ throughout. Moreover, the kon in [3] was 4650 M⁻¹ s⁻¹; in experiment [6], 4700 M⁻¹ s⁻¹. Moreover, the Kd in experiment [4] and in experiment [6] was 135 nM throughout.

B2: lipocalin mutein SEQ ID NO: 10 (designed binder)
chain: QDSTSDLIPAPPLSKVPLQQNFQDNQFHGKWYVVGLAGNTILREDKDPDKMEATIYELKEDKSYNVTSVDFIMKKCWYFITTFVPGSQPGEFTLGHIKSMPGMTSFLVRVVSTNYNQHAMVFFKYVYQNREFFEITLYGRTKELTSELKENFIRFSKSLGLPENHIVFPVPIDQCIDG
notes: as for B1
Turning to B2, the binding result in experiment [7] is recorded as “binds”. Also, in experiment [8], the “EC50 [nM] AVERAGE, hIL-23-induced proliferation of Ba/F3 cells expressing hIL-23R and hIL-12Rβ1” value was determined as 332 nM; the “EC50 [nM] Exp 1, hIL-23-induced proliferation of Ba/F3 cells expressing hIL-23R and hIL-12Rβ1” value was found to be 515 nM; the “EC50 [nM] Exp 2, hIL-23-induced proliferation of Ba/F3 cells expressing hIL-23R and hIL-12Rβ1” value was 199 nM; the “EC50 [nM] Exp 3, hIL-23-induced proliferation of Ba/F3 cells expressing hIL-23R and hIL-12Rβ1” value worked out at 316 nM. Further, in experiment [8], the “EC50 [nM] Exp 4, hIL-23-induced proliferation of Ba/F3 cells expressing hIL-23R and hIL-12Rβ1” value came out at 296 nM. Moreover, the IC50 in experiment [2] is 1.9 nM. Also, the binding result in experiment [9] was “no binding (tested: ligand up to 1000 nM)”. In experiment [3], the off-rate (koff) was found to be 0.000598 s⁻¹ and the kon was 36300 M⁻¹ s⁻¹. In experiment [6], this molecule registered a Kd of 11.5 nM, a koff of 0.00048 s⁻¹ and a kon of 42000 M⁻¹ s⁻¹. The molecule further had a Kd in [10] of 11 nM.
